{"source": "patent US20220105179A1", "about": "(published 2022)", "binders": {"B1": {"name": "hFcεRIα (receptor)", "chain": "VPQKPKVSLNPPWNRIFKGENVTLTCNGNNFFEVSSTKWFHNGSLSEETNSSLNIVNAKFEDSGEYKCQHQQVNESEPVYLEVFSDWLLLQASAEVVMEGQPLFLRCHGWRNWDVYKVIYYKDGEALKYWYENHNISITNATVEDSGTYYCTGKVWQLDYESEPLNITVIKAPREKYWLQ"}}, "target": "NEUFcε (Arthrobacter urefaciens;mouse, UniProt P06336 99-421)", "assay": "BLI"}
{"binder": "B1", "values": [{"measurement": "Kd", "result": "< 1", "unit": "pM"}]}
